Test: soluble on expression in E. coli; label from the status in PepcDB or PDB records

Sequence	soluble on expression in E. coli
RVAYIQIIEPDNLIKQGDLRSIRVKSIPSARGIISDRNGEPLAVSVPVEAVWADPATIFKENALSQKQNWYALADVLGVDRQGLIDKIKRNEKRRFIYLQRQVSPAMANYIRELKLPGIGLKSESRRYYPAGEVSAHLVGVTGIDGHGLEGVERSYDEWLTGEEGKKTIRKDRYGRVVENIAWQDKQEGKSLQLTIDQRLQAIAYRAIKQAVADHRATSGSVVMLDVKTGAVLAMVNAPSYNPNNRTDWQSYKMRNRVITDSMEPGSTIKPFVILAALENGVADKDTIVDTGNGVLRLGGSRVRDVSWVGKASLSMILKKSSNIGVTKLAMQMPVEALLGLYSSVGFGELSGLNLVGEVTGIFPTRTRWSPIERATIA	not soluble
MAHHHHHHMQGTGAVSASHCTFNQRSGVSKKEELGDAMKVDNVFPGGPKKDVLVSCANKSRQTAAGIFVHWCCRCESETSGDRGNVCEFFGDCECDDIYSTSNVPKCVKGDHMWRDSSTALRAVLQDVKGRDACNISTPNGKEILMKLTREELTSNIAPQDSSSKIFLFLLAALLMQDESVAQTSN	not soluble
MGSDKIHHHHHHMRFPEFSGEWKKYFIRDIAEVTKGAGISKEQRSLFGTPCILYGELYTTYKSEVINDVQSKTDIDAKNLVRSKENDVIIPSSGETAIDISTARCVPYDDVLLGGDLNIIRLYQNDGRFLSYQLNGVRKLDIARVAQGSSVIHLYGESIKSLSVSLPALKEQQKIVSLLSLIDERIATQNKIIEEYKKLKNALAELFFAKSIEYTSIGEMCDVVMGQSPSSVAYNYTKNGLPLIQGNLDIFEGVTSPRMWTSDITKQCDIGDIILTVRAPVGDVAKSNMIACVGRGVCAIKVKESGCSEYVYQYLLYFKAKWGSIEQGSTFSAISRNDILNINIPVITKRLIVASHLLALFDSEISIEALNLNVYTKQKQYLLTKMFI	not soluble
MRLKLTHINHISHKIANDFIHSKLLELKAPRELLCELIEGILEKSVKKENAIDEQARELLEENTDEIEFMRMDERQLFWMIKRQIAQKEGFHLFWEERCNDLSHQILNKILDEDLIMFSVSENLIRNLIYKSIDTYSKAYESIENEVHEKIKHYKRKLPVGSDEYELVFERLYEEELRRKGFL	not soluble
MSLKEVAAKTGIGTLPEWNLGDLYMGIDAPEIAHDLAKMDAECVAFETDYKGKLAEHVARDDGGEWLAAAVRRYEAIDDLAGRLGSFAGLAHAGDSVDPAISKFYGDISERLTAASTHLLFFPLELNRIDDAVIERAMETPALGHYRPWIEDLRKDKPYQLEDRVEQLFHEKSQTGYSAWNRLFDQTIAGLRFQVGGKELAIEPTLNFLQDRDGAKRKAAAEALAKTFKANERTFALITNTLAKDKDISDRWRGFQDVADSRHLNNRVEREVVDALVASVRAAYPKLSHRYYQLKARWFKKKKLAHWDRNAPLPFAANATIAWPDAKNMVLTAYRGFSPEMADIAQRFFDQSWIDAPVRPGKAPGAFSHPTTPSAHPYVLMNYQGKPRDVMTLAHELGHGVHQVLAARQGALMAPTPLTLAETASVFGEMLTFKRLLSETRDAKQRQALLAGKVEDMINTVVRQIAFYSFERAVHTERKNGELTAERLGQIWLSVQTESLGEAIEIKPGYENFWMYIPHFIHSPFYVYAYAFGDCLVNSLYAVYEHAAEGFAERYLAMLAAGGTKHYSELLAPFGLDAKDPKFWDGGLSVIAGMIDELERMGEGHHHHHH	soluble
MKIGIVTGIPGVGKSTVLAKVKEILDNQGINNKIINYGDFMLATALKLGYAKDRDEMRKLSVEKQKKLQIDAAKGIAEEARAGGEGYLFIDTHAVIRTPSGYLPGLPSYVITEINPSVIFLLEADPKIILSRQKRDTTRNRNDYSDESVILETINFARYAATASAVLAGSTVKVIVNVEGDPSIAANEIIRSMK	soluble
MGHHHHHHSHSEVAIKIDFDFAPGSFDDQYQGCSKQVMEKLTQGDYFTKDIEAQKNYFRMWQKAHLAWLNQGKVLPQNMTTTHAVAILFYTLNSNVHSDFTRAMASVARTPQQYERSFHFKYLHYYLTSAIQLLRKDSIMENGTLCYEVHYRTKDVHFNAYTGATIRFGQFLSTSLLKEEAQEFGNQTLFTIFTCLGAPVQYFSLKKEVLIPPYELFKVINMSYHPRGNWLQLRSTGNLSTYNCQLLKASSKKCIPDPIAIASLSFLTSVIIFSKSRV	not soluble
MEGVQEVEIDAPLSGWHPAEGEDASFSQSINYPASSVNMADDQNISAQIRGKIKNYAAAGKVQQGRLVVNGASMPQRIESDGSFARPYIFTEGSNSVQVISPDGQSRQKMQFYSTPGTGTIRARLRLVLSWDTDNTDLDLHVVTPDGEHAWYGNTVLKNSGALDMDVTTGYGPEIFAMPAPVHGRYQVYINYYGGRSETELTTAQLTLITDEGSVNEKQETFIVPMRNAGELTLVKSFDWLEHHHHHH	soluble
EKKEQKEKEKKEQEIKKKFKLTGPIQVIHLAKACCDVKGGKNELSFKQGEQIEIIRITDNPEGKWLGRTARGSYGYIKTTAVEIDYDSLKLKKDLE	soluble
MGSDKIHHHHHHMLSRTASELYWMARYLERAESLARVLDVTYKLSMMPRHSQQQHDLALPLNLTMTHELFQQRYAHFSMNNLLNFFALDSENPSSIYNCIEMAWNNAHAVRGSLSSEVWECINTTRIDIRNLRHQGVDNIGINEFFDWVKERSHLFRGAMFGTLLRNDAQCFIRIGTLIERACATAQLLNVKHQQLHNDPDPVREYYRLDTLLRAVSAREAYHSIYRQPISPETVTELLVLREDVPRSLHACVGDLVLQLEAIGSQRAKVPHRLAHLLHVELRFSTLDDVLAQDLPTYLNNFIIKINELADSIRHTYLEAL	not soluble
MGSDKIHHHHHHMKVFTEKIPNIPWEERPEGYTGPVWRYSKNPIIGRNPVPKGARVFNSAVVPYNGEFVGVFRIDHKNTRPFLHFGRSKDGINWEIEPEEIQWVDVNGEPFQPSYAYDPRVVKIEDTYYITFCTDDHGPTIGVGMTKDFKTFVRLPNAYVPFNRNGVLFPRKINGKYVMLNRPSDNGHTPFGDIFLSESPDMIHWGNHRFVLGRSSYNWWENLKIGAGPYPIETSEGWLLIYHGVTLTCNGYVYSFGAALLDLDDPSKVLYRSRYYLLTPEEEYETVGFVPNVVFPCAALCDADTGRVAIYYGAADTHVALAFGYIDEIVDFVKRNSM	soluble
VAGPIAVGCYPALGPTILPSMLYAFTAEYPRASVEFREDTQNRLRTQLEGGELDVAIVYDLDLSPEWQTVPLMTREPMVVLGAEHPLAGVDGPVRLADLAEHPMVLLDAPPSTNHAMDVCREAGFAPRVAYRTANFETARAFVGRGLGWTLLLQRPRVDVTYEGLPVVVKPIAEPKPASVAVVVAWHQEATLSRVARAFIRFVTA	soluble
SNASNAVKRKGVEVIIALDISNSMLAQDVQPSRLEKAKRLISRLVDELDNDKVGMIVFAGDAFTQLPITSDYISAKMFLESISPSLISKQGTAIGEAINLATRSFTPQEGVGRAIIVITDGENHEGGAVEAAKAAAEKGIQVSVLGVGMPEGAPIPVEGTNDYRRDREGNVIVTRLNEGMCQEIAKDGKGIYVRVDNSNSAQKAISQEISKMAKSDVE	soluble
MSLKVGVALSGGVDSAVALYLLLKEGHEVKAFHMKTKEDEFFIKKEIKKKVCCSPSDTADAMRIAHFLGVEIEIVDVKEIFREKVIEPFKRDLLKGLTPNPCAHCNRFVKFGYLMDYVLNQGFDAFASGHYARIEFSEKYGRKVIKKGVDLKKDQSYFLARIEPWRIERLIFPNGIYTKEEIRKIAEEAGIHVAKKQESQDVCFIPDGSIENFLKDEGITLKDGDIITPEGEVVGRHFGYPLYTIGQRKGFKIEKFGRRYYVRGKIPEKNVVVVSDLEDVFFSGLIAEDPVWHVEVPEEFRCVCRVRKKSEEAPAVVKVKDNEVEVSFEKKVFAVTPGQIAAFYDGDTLLGGAIIKEGIREGHHHHHH	soluble
GAQLLGVHPKGESQRASRGGGQATKMSSAVGPRGPRPPTVPPPMQELPDLSHLTEEERNIIMAVMDRQKEEEEKEEAMLKCVVRDMAKPAACKTPRNAENQPHQPSPRLHQQFESYKEQVRKIGEEARRYQGEHKDDAPTCGICHKTKFADGCGHLCSYCRTKFCARCGGRVSLRSNNEDKVVMWVCNLCRKQQEILTKSGAWFFGSGPQQTSQDGTLSDTATGAGSEVPREKKARLQERSRSQTPLSTAAASSQDAAPPSAPPDRSKGAEPSQQALGPEQKQASSRSRSEPPRERKKTPGLSEQNGKGALKSERKRVPKTSAQPVEGAVEERERKERRESRRLEKGRSQDYPDTPEKRDEGKAADEEKQRKEEDYQTRYRSDPNLARYPVKPPPEEQQMRMHARVSRARHERRHSDVALPRTEAGAALPEGKAGKRAPAAARASPPDSPRAYSAERTAETRAPGAKQLTNHSPPAPRHGPVPAEAPELKAQEPLRKQSRLDPSSAVLMLRNDSLSSDQSESVRPSPPKPHRSKRGGKKRQMSVSSSEEEGVSTPEYTSCEDVELESESVSEKGDLDYYWLDPATWHSRETSPISSHPVTWQPSKEGDRLIGRVILNKRTTMPKDSGALLGLKVVGGKMTDLGRLGAFITKVKKGSLADVVGHLRAGDEVLEWNGKPLPGATNEEVYNIILESKSEPQVEIIVSRPIGDIPRIPESSHPPLESSSSSFESQKMERPSISVISPTSPGALKDAPQVLPGQLSVKLWYDKVGHQLIVNVLQATDLPARVDGRPRNPYVKMYFLPDRSDKSKRRTKTVKKILEPKWNQTFVYSHVHRRDFRERMLEITVWDQPRVQEEESEFLGEILIELETALLDDEPHWYKLQTHDESSLPLPQPSPFMPRRHIHGESSSKKLQRSQRISDSDISDYEVDDGIGVVPPVGYRSSARESKSTTLTVPEQQRTTHHRSRSVSPHRGNDQGKPRSRLPNVPLQRSLDEIHPTRRSRSPTRHHDASRSPVDHRTRDVDSQYLSEQDSELLMLPRAKRGRSAECLHTTR	soluble
MTQTLLAIENLSVGFRHQQTVRTVVNDVSLQIEAGETLALVGESGSGKSVTALSILRLLPSPPVEYLSGDIRFHGESLLHASDQTLRGVRGNKIAMIFQEPMVSLNPLHTLEKQLYEVLSLHRGMRREAARGEILNCLDRVGIRQAAKRLTDYPHQLSGGERQRVMIAMALLTRPELLIADEPTTALDVSVQAQILQLLRELQGELNMGMLFITHNLSIVRKLAHRVAVMQNGRCVEQNYAATLFASPTHPYTQKLLNSEPSGDPVPLPEPASTLLDVEQLQVAFPIRKGILKRIVDHNVVVKNISFTLRAGETLGLVGESGSGKSTTGLALLRLINSQGSIIFDGQPLQNLNRRQLLPIRHRIQVVFQDPNSSLNPRLNVLQIIEEGLRVHQPTLSAAQREQQVIAVMHEVGLDPETRHRYPAEFSGGQRQRIAIARALILKPSLIILDEPTSSLDKTVQAQILTLLKSLQQKHQLAYLFISHDLHVVRALCHQVIILRQGEVVEQGPCARVFATPQQEYTRQLLALS	not soluble
MTTGNNDFYYSNKYEDDEFEYRHVHVTKDVSKLIPKNRLMSETEWRSLGIQQSPGWMHYMIHGPERHVLLFRRPLAATQKTGGNVRSGNAVGVR	not soluble
MNLEPPKAEIRSATRVMGGPVTPRKGPPKFKQRQTRQFKSKPPKKGVQGFGDDIPGMEGLGTDITVICPWEAFNHLELHELAQYGII	soluble
FNRGGYNFGKSVRHVVDAIGSVAGIRGILKSIR	soluble
MDLIGLRIRNIRKIKQLTLKEAAKGIISVPYLANIENGVKVASFETLMHIAKRLEIPEEALLIGNEDLNKELLQELKQIFDLLVFSNTKEAGDRLDQIAANVDLLCESPVIELSFYWLQAGFYYKTWEFSKAREIERKYLNSNEKRVVESFPPDLLSYYYYGQAVKHSHATCDYQLAVEYWEKSIDLTDKAAFQVVFQVGLCINYICLNNYEPALKHIECAWNLIKRFPSKDQERITAILYLYGYINFQIGFMTEAKRKFEEVLVFFNMYPEAKTMYSFLVRFKLAEIERVEGNHELFDEKIVCLYEELMAHEASEIGFNNNDYLVITELMVIFAEQGSVLEASNLLAIINKVTEQVMEINFFVTYTETLLLYHQNKQSSYEKKMLDLLKKIDESNDPALIERVKKHASKHFADSTKYKMAYNILA	not soluble
